Results from patent US20210107982A1 (NANJING LEADS BIOLABS, published 2021).
Where two headings read alike, the source gives them in different places.

Legend:
[1] = molecular target: T1, Human 4-1BB, human Fc tag protein (Hu4-1BB-hFc) (human); assay: ELISA, Hu4-1BB-hFc coated, antibody 6.65 nM to 0.009 nM
T1 construct: also called Hu4-1BB-huFc; human 4-1BB proteins

[2] = molecular target: T2, Human 4-1BB recombinant protein (Sinobiological, Cat #10041-H08H) (human, UniProt Q07011 24-186); assay: BLI (ForteBio Octet RED 96), antibody on AHC sensors, human 4-1BB as analyte, 1:1 model
T2 construct: Bought recombinant protein

[3] = molecular target: T3, Human 4-1BB expressed on HEK293-NFκB-Luc-human 4-1BB cells (human, UniProt Q07011 24-255); assay: cell-based or functional assay
T3 sequence (Q07011 24-255 limits assumed): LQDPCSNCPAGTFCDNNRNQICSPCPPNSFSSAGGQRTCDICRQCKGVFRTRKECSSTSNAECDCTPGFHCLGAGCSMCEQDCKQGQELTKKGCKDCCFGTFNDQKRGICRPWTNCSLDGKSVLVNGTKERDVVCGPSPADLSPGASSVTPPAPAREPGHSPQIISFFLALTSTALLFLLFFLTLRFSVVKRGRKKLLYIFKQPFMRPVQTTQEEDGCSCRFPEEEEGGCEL

[4] = molecular target: T3, Human 4-1BB expressed on …; assay: cell-based or functional assay; remark: listed apart in the source
[5] = molecular target: T4, Human OX40 (Sinobiological, Cat #10481-H08H) (human, UniProt P43489 29-216); assay: ELISA, antigen coated at 25 ng/well
T4 sequence (looked up): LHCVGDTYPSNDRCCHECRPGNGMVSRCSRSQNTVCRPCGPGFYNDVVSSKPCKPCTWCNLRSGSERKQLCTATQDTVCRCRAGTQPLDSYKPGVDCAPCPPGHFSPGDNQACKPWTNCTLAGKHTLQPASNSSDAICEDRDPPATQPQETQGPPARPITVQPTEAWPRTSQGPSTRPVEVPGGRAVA

[6] = molecular target: T5, Human CD27 (Sinobiological, Cat #10039-H31H) (human, UniProt P26842 20-192); assay: ELISA, antigen coated at 25 ng/well
T5 sequence (looked up): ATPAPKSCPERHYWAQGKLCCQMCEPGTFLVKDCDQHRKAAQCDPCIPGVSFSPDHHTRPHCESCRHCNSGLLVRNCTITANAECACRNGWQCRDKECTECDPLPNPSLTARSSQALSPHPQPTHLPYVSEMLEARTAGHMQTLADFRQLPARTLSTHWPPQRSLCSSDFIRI

[7] = molecular target: T6, Human GITR (Sinobiological, Cat #13643-H08H) (human, UniProt Q9Y5U5 26-161); assay: ELISA, antigen coated at 25 ng/well
T6 sequence (looked up): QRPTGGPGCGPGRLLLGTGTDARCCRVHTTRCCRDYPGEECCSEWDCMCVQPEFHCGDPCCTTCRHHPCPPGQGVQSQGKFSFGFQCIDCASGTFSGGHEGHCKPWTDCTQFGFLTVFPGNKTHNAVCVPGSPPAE

[8] = molecular target: Human CD40 (Sinobiological, Cat #10774-H08H) (human, UniProt P25942 21-193); assay: ELISA, antigen coated at 25 ng/well
Sequence of Human CD40 (Sinobiological, Cat #10774-H08H) (P25942 21-193 limits assumed): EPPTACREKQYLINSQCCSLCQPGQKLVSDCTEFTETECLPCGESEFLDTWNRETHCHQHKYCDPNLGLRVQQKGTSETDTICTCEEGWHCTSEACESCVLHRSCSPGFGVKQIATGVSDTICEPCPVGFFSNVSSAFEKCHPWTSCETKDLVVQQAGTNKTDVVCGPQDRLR

[9] = molecular target: T7, Human HVEM (Sinobiological, Cat #10334-H03H) (human, UniProt Q92956 39-202); assay: ELISA, antigen coated at 25 ng/well
T7 sequence (looked up): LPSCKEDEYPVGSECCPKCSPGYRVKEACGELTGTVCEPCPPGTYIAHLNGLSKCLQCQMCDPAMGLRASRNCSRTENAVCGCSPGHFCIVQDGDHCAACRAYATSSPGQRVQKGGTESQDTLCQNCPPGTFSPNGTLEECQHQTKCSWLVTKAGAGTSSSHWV

[10] = molecular target: T2, Human 4-1BB recombinant protein …; assay: ELISA on plate-coated human 4-1BB (25 ng/well), HRP anti-human IgG F(ab')2 detection, OD450; EC50 table under the curve, unit taken from the axis 'Antibody Conc [nM]'
[11] = molecular target: T3, Human 4-1BB expressed on …; assay: cell-based or functional assay; remark: listed apart in the source
[12] = molecular target: T3, Human 4-1BB expressed on …; assay: cell-based or functional assay; remark: listed apart in the source
[13] = molecular target: T2, Human 4-1BB recombinant protein …; assay: ELISA on plate-coated human 4-1BB (25 ng/well), HRP anti-human IgG F(ab')2 detection, OD450; EC50 table under the curve, unit taken from the axis 'Antibody Conc [nM]'; remark: listed apart in the source
[14] = molecular target: T3, Human 4-1BB expressed on …; assay: cell-based or functional assay; remark: listed apart in the source
[15] = molecular target: T2, Human 4-1BB recombinant protein …; assay: ELISA on plate-coated human 4-1BB (25 ng/well), HRP anti-human IgG F(ab')2 detection, OD450; EC50 table under the curve, unit taken from the axis 'Antibody Conc [nM]'; remark: listed apart in the source
[16] = molecular target: T3, Human 4-1BB expressed on …; assay: cell-based or functional assay; remark: listed apart in the source
[17] = molecular target: T3, Human 4-1BB expressed on …; assay: cell-based or functional assay; remark: listed apart in the source
[18] = molecular target: T2, Human 4-1BB recombinant protein …; assay: ELISA on plate-coated human 4-1BB (25 ng/well), HRP anti-human IgG F(ab')2 detection, OD450-620; EC50 table under the curve, unit taken from the axis 'Antibody Conc [nM]'

T1 sequence (chain, as listed by the source limits assumed): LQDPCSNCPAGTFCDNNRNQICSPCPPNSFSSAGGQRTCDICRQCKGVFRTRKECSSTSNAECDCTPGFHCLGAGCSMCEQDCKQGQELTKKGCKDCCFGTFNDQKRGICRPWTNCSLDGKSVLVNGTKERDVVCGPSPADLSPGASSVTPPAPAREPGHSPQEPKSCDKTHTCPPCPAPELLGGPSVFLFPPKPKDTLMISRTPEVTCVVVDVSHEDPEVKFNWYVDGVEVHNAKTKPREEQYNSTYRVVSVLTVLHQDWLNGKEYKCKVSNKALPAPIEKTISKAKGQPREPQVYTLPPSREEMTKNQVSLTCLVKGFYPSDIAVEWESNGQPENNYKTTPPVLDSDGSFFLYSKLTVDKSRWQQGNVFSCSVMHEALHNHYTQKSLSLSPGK

B1: P4B-2 (bispecific antibody, human IgG1, kappa, L234A L235A)
heavy: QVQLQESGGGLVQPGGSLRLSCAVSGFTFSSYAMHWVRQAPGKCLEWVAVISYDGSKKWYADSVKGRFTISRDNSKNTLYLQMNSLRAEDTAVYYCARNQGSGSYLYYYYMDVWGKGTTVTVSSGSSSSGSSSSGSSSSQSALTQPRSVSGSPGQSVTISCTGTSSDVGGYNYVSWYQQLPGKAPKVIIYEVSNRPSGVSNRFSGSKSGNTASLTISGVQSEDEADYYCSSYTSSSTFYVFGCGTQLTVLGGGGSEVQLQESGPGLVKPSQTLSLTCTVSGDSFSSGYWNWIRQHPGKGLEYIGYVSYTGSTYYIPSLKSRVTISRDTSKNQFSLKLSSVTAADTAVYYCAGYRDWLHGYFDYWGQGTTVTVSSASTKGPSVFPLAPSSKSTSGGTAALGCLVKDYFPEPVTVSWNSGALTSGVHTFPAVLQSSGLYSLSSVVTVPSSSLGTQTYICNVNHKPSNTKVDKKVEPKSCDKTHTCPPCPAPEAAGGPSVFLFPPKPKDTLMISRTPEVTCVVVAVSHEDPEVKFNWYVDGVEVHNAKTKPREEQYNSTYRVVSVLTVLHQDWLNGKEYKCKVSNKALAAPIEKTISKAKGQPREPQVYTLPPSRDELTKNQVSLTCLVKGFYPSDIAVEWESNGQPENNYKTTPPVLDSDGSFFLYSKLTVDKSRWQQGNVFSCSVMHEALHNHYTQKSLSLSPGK
light: DIQMTQSPSSLSASVGDRVTITCKASQNVMDNVAWYQQKPGKAPKRLIYSASYRFSGVPSRFSGSGSGTEFTLTISSLQPEDFATYYCQQYNGYPLTFGQGTKLEIKRTVAAPSVFIFPPSDEQLKSGTASVVCLLNNFYPREAKVQWKVDNALQSGNSQESVTEQDSKDSTYSLSSTLTLSKADYEKHKVYACEVTHQGLSSPVTKSFNRGEC
notes: PD-L1 x 4-1BB bispecific; the 4-1BB scFv stands at the N-terminus of each heavy chain of the PD-L1 antibody
EC50 [1]: 0.113 nM

B2: P4B-3 (bispecific antibody, human IgG1, kappa, L234A L235A)
heavy: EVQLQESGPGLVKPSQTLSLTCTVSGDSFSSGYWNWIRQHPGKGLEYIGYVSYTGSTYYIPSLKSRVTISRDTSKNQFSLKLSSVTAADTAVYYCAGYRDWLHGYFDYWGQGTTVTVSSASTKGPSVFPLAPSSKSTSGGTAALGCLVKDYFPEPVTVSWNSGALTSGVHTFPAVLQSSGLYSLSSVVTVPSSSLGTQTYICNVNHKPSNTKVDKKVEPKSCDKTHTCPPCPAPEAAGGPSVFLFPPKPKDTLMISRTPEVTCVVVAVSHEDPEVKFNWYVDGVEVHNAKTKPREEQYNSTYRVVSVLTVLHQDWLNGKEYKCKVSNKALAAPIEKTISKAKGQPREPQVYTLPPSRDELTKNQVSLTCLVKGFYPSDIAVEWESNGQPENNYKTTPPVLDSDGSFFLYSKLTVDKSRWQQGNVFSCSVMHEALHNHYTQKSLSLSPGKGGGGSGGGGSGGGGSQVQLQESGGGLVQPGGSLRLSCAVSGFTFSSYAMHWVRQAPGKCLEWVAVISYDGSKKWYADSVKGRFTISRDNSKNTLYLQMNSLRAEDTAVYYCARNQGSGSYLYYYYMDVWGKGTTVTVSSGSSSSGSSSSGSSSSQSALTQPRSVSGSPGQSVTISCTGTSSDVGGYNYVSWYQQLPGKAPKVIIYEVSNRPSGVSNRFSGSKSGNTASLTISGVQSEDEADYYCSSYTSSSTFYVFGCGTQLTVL
light: B1 light
notes: PD-L1 x 4-1BB bispecific; the 4-1BB scFv stands at the C-terminus of each heavy chain of the PD-L1 antibody
EC50 [1]: 0.0723 nM | Kd [2]: 146 nM | koff [2]: 0.00409 s⁻¹ | kon [2]: 28000 M⁻¹ s⁻¹

B3: 41BB-13-IgG2 (antibody, V domains shown)
VH: EVQLVETGVEVKKPGASVKVSCKASGYTFTSYYMHWVRQAPGQGLEWMGIINPSGGSTSYAQKFQGRVTMTRDTSTSTAYMELSSLRSEDTAVYYCARDLGEGYDFWSGYYTPSGAFDIWGKGTMVTVSS
VL: QSALTQPASVSGSPGQSITISCTGTSSDVGGYNYVSWYQQRPGKAPKLIIYDVTTRPSGVSNRFSGSKSGTTASLTISGLQAEDEADYYCSSYTSYSTWVFGGGTKLTVLG
notes: Full antibody, IgG2 / lambda
EC50, NFκB-luciferase reporter (RLUs) in HEK293-NFκB-Luc-4-1BB cells, without crosslink [3]: 106 nM | EC50, NFκB-luciferase reporter (RLUs) in HEK293-NFκB-Luc-4-1BB cells, with crosslink (goat anti-human IgG) [4]: 10.6 nM | binding result [5]: no binding (tested: 500 ng/mL) | binding result [6]: no binding (tested: 500 ng/mL) | binding result [7]: no binding (tested: 500 ng/mL) | binding result [8]: no binding (tested: 500 ng/mL) | binding result [9]: no binding (tested: 500 ng/mL) | EC50 [10]: 1.27 nM

B4: 41BB-9-IgG2 (antibody, V domains shown)
VH: QVQLVQSGAEVKKPGSSVKVSCKASGGTFSSYAISWVRQAPGQGLEWMGGIIPISGAVNYAQKFQGRVTITADESTSTAYMELSSLRSEDTAVYYCARDQFIKYYDFSSGYFPNGFDIWGKGTLVTVSS
VL: QTVVTQPPSVSVSPGQTASITCSGDKLGDKYAAWYQQKPGQSPVLVIYQDTVRPSGIPERFSGSNSGNTATLTISGTQAMDEADYYCQTWVSSTGVFGTGTKVTVLG
notes: Full antibody, IgG2 / lambda
EC50, NFκB-luciferase reporter (RLUs) in HEK293-NFκB-Luc-4-1BB cells, without crosslink [11]: 16.6 nM | EC50, NFκB-luciferase reporter (RLUs) in HEK293-NFκB-Luc-4-1BB cells, with crosslink (goat anti-human IgG) [12]: 3.24 nM | binding result [5]: no binding (tested: 500 ng/mL) | binding result [6]: no binding (tested: 500 ng/mL) | binding result [7]: no binding (tested: 500 ng/mL) | binding result [8]: no binding (tested: 500 ng/mL) | binding result [9]: no binding (tested: 500 ng/mL) | EC50 [13]: 0.134 nM

B5: 41BB-27-IgG2 (antibody, V domains shown)
VH: QVQLQESGPGPVKPSETLSLTCAVSGGSISSSHWWSWVRQPPGKGLEWIGEIYHSGRTYYNPSLKSRVTISVDTSRNQFSLKLSSVTAADTAVYYCAREDGGIMDVWGQGTLVTVSS
VL: LSSELTQDPAVSVALGQTVRITCQGDSLRRFYASWYQQKPGQAPVLVIYGKNNRPSGIPDRFSASDSGNTASLTITGAQAEDEADYYCSSRDRSGYRWVFGGGTKVTVLG
notes: Full antibody, IgG2 / lambda
EC50, NFκB-luciferase reporter (RLUs) in HEK293-NFκB-Luc-4-1BB cells, without crosslink [14]: 35.9 nM | binding result [5]: no binding (tested: 500 ng/mL) | binding result [6]: no binding (tested: 500 ng/mL) | binding result [7]: no binding (tested: 500 ng/mL) | binding result [8]: no binding (tested: 500 ng/mL) | binding result [9]: no binding (tested: 500 ng/mL) | EC50 [15]: 0.05 nM

B6: Urelumab (antibody, human IgG4 S228P, kappa, V domains shown)
VH: QVQLQQWGAGLLKPSETLSLTCAVYGGSFSGYYWSWIRQSPEKGLEWIGEINHGGYVTYNPSLESRVTISVDTSKNQFSLKLSSVTAADTAVYYCARDYGPGNYDWYFDLWGRGTLVTVSS
VL: EIVLTQSPATLSLSPGERATLSCRASQSVSSYLAWYQQKPGQAPRLLIYDASNRATGIPARFSGSGSGTDFTLTISSLEPEDFAVYYCQQRSNWPPALTFCGGTKVEIKR
EC50, NFκB-luciferase reporter (RLUs) in HEK293-NFκB-Luc-4-1BB cells, without crosslink [16]: 26.8 nM | EC50, NFκB-luciferase reporter (RLUs) in HEK293-NFκB-Luc-4-1BB cells, without crosslink [11]: 34 nM | EC50, NFκB-luciferase reporter (RLUs) in HEK293-NFκB-Luc-4-1BB cells, without crosslink [3]: 32.3 nM

B7: 41BB-2-IgG2 (antibody, V domains shown)
VH: QVQLQESGGGLVQPGGSLRLSCAVSGFTFSSYAMHWVRQAPGKGLEWVAVISYDGSKKWYADSVKGRFTISRDNSKNTLYLQMNSLRAEDTAVYYCARNQGSGSYLYYYYMDVWGKGTTVTVSS
VL: QSALTQPRSVSGSPGQSVTISCTGTSSDVGGYNYVSWYQQLPGKAPKVIIYEVSNRPSGVSNRFSGSKSGNTASLTISGVQSEDEADYYCSSYTSSSTFYVFGTGTQLTVLS
notes: Full antibody; VH joined to the IgG2 constant region, VL to the lambda constant region
EC50, NFκB-luciferase reporter (RLUs) in HEK293-NFκB-Luc-4-1BB cells, without crosslink [16]: 47.4 nM | EC50, NFκB-luciferase reporter (RLUs) in HEK293-NFκB-Luc-4-1BB cells, with crosslink (goat anti-human IgG) [17]: 6.21 nM | EC50, NFκB-luciferase reporter (RLUs) in HEK293-NFκB-Luc-4-1BB cells, without crosslink [14]: 56.1 nM | binding result [5]: no binding (tested: 500 ng/mL) | binding result [6]: no binding (tested: 500 ng/mL) | binding result [7]: no binding (tested: 500 ng/mL) | binding result [8]: no binding (tested: 500 ng/mL) | binding result [9]: no binding (tested: 500 ng/mL) | EC50 [18]: 0.622 nM
